± gives the uncertainty stated by the source.

The chains are these.
B1: Protein S100-G, residues 1 to 79; numbered along this chain, P02633 (parent)
chain: MSAKKSPEELKGIFEKYAAKEGDPNQLSKEELKLLLQTEFPSLLKGPSTLDELFEELDKNGDGEVSFEEFQVLVKKISQ

Variants of B1 are the subject of the data set. The data set can be described thus: abundance fitness (aPCA) (normalised: wild type 0, dead -1); higher = more abundant; growth selection in yeast, the domain comes from the species named. The conditions noted are these: Bos taurus.
Take I77H: the abundance fitness is -0.155 ± 0.068.

For I77L, the abundance fitness was -0.073 ± 0.058. As to I77T, the abundance fitness is -0.14 ± 0.064. For the variant I77F, the abundance fitness was 0.051 ± 0.084. On to F14W, for which the abundance fitness was -0.088 ± 0.083. As for F14Y, the abundance fitness was determined as 0.028 ± 0.086.

Consider F14N, for which the abundance fitness was -1.2 ± 0.1. Regarding F14R, the abundance fitness is -1.37 ± 0.07. With F14M, the abundance fitness is -0.589 ± 0.084.

Take F14T: the abundance fitness was -1.33 ± 0.075. For L50D the value was -0.068 ± 0.082; for L50P, -0.059 ± 0.07; for L50M, -0.01 ± 0.077. Regarding L50S, the abundance fitness was -0.034 ± 0.061. Regarding L50G, the abundance fitness was -0.078 ± 0.066. Turning to Y17M, the abundance fitness was -0.168 ± 0.083. Turning to Y17V, the abundance fitness is -0.345 ± 0.071. Consider Y17N, for which the abundance fitness is -0.433 ± 0.079. Then Y17H, with -0.067 ± 0.076; and Y17F, with -0.008 ± 0.082; and G12R, with 0.046 ± 0.076.

With G12L, the abundance fitness was -0.009 ± 0.059.

Take G12D: the abundance fitness amounted to 0.067 ± 0.12. For G12P the value was -0.048 ± 0.068. On to G12Q, for which the abundance fitness was -0.059 ± 0.077. In the case of Q71D, the abundance fitness is -0.038 ± 0.087.

Regarding Q71F, the abundance fitness is -0.107 ± 0.085. As to K33T, the abundance fitness turned out to be 0.059 ± 0.074. K33E: the abundance fitness is -0.032 ± 0.093. As for K33V, the abundance fitness was -0.016 ± 0.072. As for Q26S, the abundance fitness came out at 0.042 ± 0.064.

As to Q26D, the abundance fitness is -0.155 ± 0.092. As for Q26Y, the abundance fitness was found to be 0.021 ± 0.082. For the variant G61N, the abundance fitness was -0.072 ± 0.08. Then G61Q, with -0.021 ± 0.084.

For the variant P7R, the abundance fitness was -0.079 ± 0.066.

P7T: the abundance fitness was found to be 0.066 ± 0.07. For the variant P7M, the abundance fitness came to 0.058 ± 0.078. As for K5R, the abundance fitness is -0.154 ± 0.067. In the case of K5Q, the abundance fitness is -0.222 ± 0.082. For K5Y, the abundance fitness came to 0.025 ± 0.071. On to M1V, for which the abundance fitness is -0.313 ± 0.078. For M1Y the value was -0.501 ± 0.13. For the variant M1R, the abundance fitness was -0.631 ± 0.091. On to P24C, for which the abundance fitness is 0.029 ± 0.087. Turning to P24F, the abundance fitness was -0.197 ± 0.087.

Consider I13T, for which the abundance fitness was -0.17 ± 0.079. For I13H, the abundance fitness is -0.287 ± 0.08. For I13G the value was -0.959 ± 0.079; for I13E, -0.386 ± 0.092; for S48W, -0.048 ± 0.083. Take S48R: the abundance fitness is 0.038 ± 0.064. On to S48T, for which the abundance fitness is -0.029 ± 0.064. Regarding S48M, the abundance fitness is -0.056 ± 0.076. In the case of F54G, the abundance fitness was -0.038 ± 0.071. On to F54C, for which the abundance fitness is -0.004 ± 0.08. F54V: the abundance fitness is -0.015 ± 0.065.

As to F54E, the abundance fitness was -0.033 ± 0.084.

Consider F54H, for which the abundance fitness is -0.054 ± 0.083. Then E69T, with -0.013 ± 0.077; and K16M, with -0.145 ± 0.08. Turning to K16C, the abundance fitness was -0.12 ± 0.086. As to K16G, the abundance fitness is -0.213 ± 0.07. On to K16E, for which the abundance fitness is -0.105 ± 0.085. With K16Y, the abundance fitness is -0.102 ± 0.092. With K16A, the abundance fitness was -0.058 ± 0.069. On to L73F, for which the abundance fitness is -0.124 ± 0.089.

Turning to L73N, the abundance fitness was -0.273 ± 0.086. As for L73G, the abundance fitness is -0.041 ± 0.078. For L73D the value was -0.668 ± 0.1. For L73M the value was -0.05 ± 0.082; for T38P, -0.642 ± 0.077. As for T38R, the abundance fitness is -0.082 ± 0.071. In the case of T38V, the abundance fitness came out at 0.014 ± 0.075. T38H: the abundance fitness was -0.045 ± 0.091. L10R: the abundance fitness was -0.488 ± 0.071. For L10K, the abundance fitness was -0.401 ± 0.088. In the case of E9H, the abundance fitness is -0.094 ± 0.078. For the variant E9I, the abundance fitness is -0.111 ± 0.081. For the variant E9V, the abundance fitness is -0.062 ± 0.084. With E9K, the abundance fitness was -0.061 ± 0.096. In the case of E9G, the abundance fitness is -0.108 ± 0.092.

Regarding E9F, the abundance fitness is -0.128 ± 0.083.

In the case of Q37R, the abundance fitness is 0.005 ± 0.067. Turning to Q37F, the abundance fitness is -0.016 ± 0.074. For Q37W, the abundance fitness is -0.082 ± 0.085.

As for L43Q, the abundance fitness was 0.028 ± 0.078. In the case of L43E, the abundance fitness amounted to 0.105 ± 0.09. For L43M, the abundance fitness came to 0.011 ± 0.079. On to E15N, for which the abundance fitness is -0.042 ± 0.083.

Consider E15S, for which the abundance fitness was -0.009 ± 0.065. In the case of E15P, the abundance fitness was -0.722 ± 0.08. In the case of E15M, the abundance fitness amounted to 0.058 ± 0.082. Regarding N25V, the abundance fitness was -0.066 ± 0.07. On to N25S, for which the abundance fitness was -0.027 ± 0.07. Consider N25M, for which the abundance fitness was -0.083 ± 0.081. Then N25L, with 0.081 ± 0.065; and N25I, with 0.024 ± 0.086; and N25F, with 0.027 ± 0.085. For N25Y the value was -0.067 ± 0.093. As to N25A, the abundance fitness turned out to be 0.014 ± 0.072.

Regarding E68M, the abundance fitness is -0.044 ± 0.075. E68P: the abundance fitness turned out to be 0.009 ± 0.067. As for E68H, the abundance fitness is -0.001 ± 0.074. For the variant E68R, the abundance fitness was -0.046 ± 0.061.

Consider E68F, for which the abundance fitness was -0.062 ± 0.074.

In the case of E64V, the abundance fitness is -0.065 ± 0.067. Then E64Y, with -0.049 ± 0.08; and E64M, with 0.035 ± 0.096.

With D23E, the abundance fitness is -0.053 ± 0.088. Turning to D23V, the abundance fitness is -0.065 ± 0.068. On to D23F, for which the abundance fitness is -0.079 ± 0.081. Take D23W: the abundance fitness is -0.254 ± 0.083. Take D23A: the abundance fitness is -0.009 ± 0.069. Take L57F: the abundance fitness is -0.014 ± 0.086.

Regarding L57N, the abundance fitness was -0.042 ± 0.095. With L57I, the abundance fitness worked out at 0.156 ± 0.1.

With L57G, the abundance fitness is -0.117 ± 0.084. Then K20V, with -0.077 ± 0.075; and K20D, with -0.05 ± 0.1. For K20E, the abundance fitness was -0.119 ± 0.093.

In the case of K4S, the abundance fitness is -0.005 ± 0.061. For K4E, the abundance fitness was -0.154 ± 0.095. Regarding K4A, the abundance fitness was -0.337 ± 0.068.

As for K4W, the abundance fitness was -0.343 ± 0.087. For K75L, the abundance fitness was -0.045 ± 0.059. For K75V the value was -0.074 ± 0.076; for K75Y, -0.173 ± 0.084; for D62W, -0.168 ± 0.088. For D62V the value was -0.027 ± 0.065. With A18Y, the abundance fitness was -0.424 ± 0.085. As for A18N, the abundance fitness is -0.362 ± 0.08. For A18P, the abundance fitness was -0.968 ± 0.073.

Consider A18S, for which the abundance fitness is -0.055 ± 0.063. Then A18M, with -0.161 ± 0.092; and A18W, with -0.516 ± 0.093. In the case of S2F, the abundance fitness came to 0.073 ± 0.081. For the variant S2W, the abundance fitness was -0.118 ± 0.095. Consider S2K, for which the abundance fitness stood at 0.225 ± 0.1. For the variant A19S, the abundance fitness amounted to 0.007 ± 0.065. Consider A19T, for which the abundance fitness turned out to be 0.143 ± 0.074. Then A19C, with -0.009 ± 0.08.

As for A19H, the abundance fitness was -0.013 ± 0.083. With A19Q, the abundance fitness amounted to 0.028 ± 0.085.

Consider P41G, for which the abundance fitness was 0.002 ± 0.072.

For P41M, the abundance fitness is -0.091 ± 0.085. In the case of P41E, the abundance fitness was -0.191 ± 0.091. As to P41Y, the abundance fitness is -0.037 ± 0.09.

For P41Q, the abundance fitness was found to be 0.025 ± 0.086.

As to P41W, the abundance fitness is -0.115 ± 0.085. Take A3P: the abundance fitness was -0.137 ± 0.073. With A3W, the abundance fitness was -0.178 ± 0.091.

In the case of A3D, the abundance fitness was 0.066 ± 0.09. For the variant A3N, the abundance fitness amounted to 0.03 ± 0.087. Regarding E55R, the abundance fitness was found to be 0.001 ± 0.064. On to E55D, for which the abundance fitness was 0.033 ± 0.089. For E55L, the abundance fitness worked out at 0.04 ± 0.063. As for E55W, the abundance fitness was found to be 0.011 ± 0.083. On to E55G, for which the abundance fitness was 0.02 ± 0.073. Consider E55M, for which the abundance fitness stood at 0.004 ± 0.078. Turning to E55I, the abundance fitness is -0.035 ± 0.082. As for F67T, the abundance fitness is -0.201 ± 0.07. As to F67V, the abundance fitness was -0.059 ± 0.061. Take F67L: the abundance fitness is -0.059 ± 0.06. As to F67G, the abundance fitness was -0.175 ± 0.063.

F67C: the abundance fitness was -0.05 ± 0.079. Then F67S, with -0.097 ± 0.065.

For the origin of these results see the Human Domainome abundance scans (Beltran et al. 2025).
